These results are taken from the DeepSol protein solubility set.

This data set is described as follows: soluble on expression in E. coli; label from the status in PepcDB or PDB records.
Take “MLSVRTPLATIADQQQLQLSPLKRLTLADKENTPPTLSSTRVLASKAARRIFQDSAELESKAPTNPSVEDEPLLRENPRRFVVFPIEYHDIWQMYKKAEASFWTAEEVDLSKDIQHWEALKPDERHFISHVLAFFAASDGIVNENLVERFSQEVQVTEARCFYGFQIAMENIHSEMYSLLIDTYIKDPKEREYLFNAIETMPCVKKKADWALRWIGDKEATYGERVVAFAAVEGIFFSGSFASIFWLKKRGLMPGLTFSNELISRDEGLHCDFACLMFKHLVHKPAEQRVREIITNAVRIEQEFLTEALPVKLIGMNCTLMKQYIEFVADRLMLELGFNKIFRVENPFDFMENISLEGKTNFFEKRVGEYQRMGVMSNSTENSFTLDADF”: the “soluble on expression in E. coli” value is reported as “soluble”.

Regarding “MLTEKTKKELIRLSKVNNYIIKVETNQNFKHQSKCGDQILFQIIETNNGKFNLKHHASGCIVLLASANALNKLCNNKAKSEILNLVQKVINSNFANLDEIDVSLKIFNVFTNTNRKDCFLLPYKSLKDSLESYKPLRRTIRLEHHHHHH”, the “soluble on expression in E. coli” value is listed as “not soluble”.

“MLTLKNDYLTVKINPLGAELTSVVDNETQLEYMWQADKAYWGRHAPILFPIVGRLQDNQYRLGERTYHMTQHGFARDREFTVIDQTPTQVTLELTADDQSRALFPADFTLTVTFELIDHQLRFSADVFNPATTTLPFSIGAHPGFNVPLGDALADFTDYQVTVSPKKTYQRVPLVGPYSDSQHTEPLDLTQPLGLDHGLFAHDAQVLTLDSETTVMLSTPTNDHGVALTTTAPYLGIWSPYPKQAPFVCLEPWWGLADDVQATGELTTKVAIHHLAAQQHFQAAYQVTYFLEHHHHHH”: the “soluble on expression in E. coli” value is given as “not soluble”.

In the case of “MLTLLRRGLLVFLAAFPLLSMAAPTPQQVVQGTVDELLSDIKANKAAYKADPQKLYATLDRILGPVVDAEGIAKSVMTVKYSRQASPEQIKRFEEVFKNSLMQFYGNALLEYDNQDIRVLPSSAKPSDDRASVNMEIRDSKGTVYPVSYTMTNLAGGWKVRNVIINGINIGKLFRDQFADTMQKNRNDLEKTIAGWGEVVAKAKETAKAEEAGAKAAALEHHHHHH”, the “soluble on expression in E. coli” value is listed as “soluble”.

Consider “MLTPERHQMILQLVKEQKVVKLQQLVERTESSESTIRRDLAQLEKQRLLKRVHGGAAVLTGKGQEPTMVEKSSKNIQIKQQIAKYAASVIEQGDCIYLDAGSTTFEMIPFLINKDVTVVTNGLMHIEALVENNIRAYLLGGMMKSRTKALIGAMAQESMQKYRFDKCFLGANGVHEQLGFTTPDPEEALLKQMALTLANEGYFLIDESKFSEVAFAKIANVEDANIITNHLEIDLEKYKQQTNVIEADKQLEHHHHHH”, for which the “soluble on expression in E. coli” value was “soluble”.

For the sequence “MLTSFGQILRKLFCIDCSERLLDMADKLGVSVAFLSSVKIGKKSVPVGIFVRTLENFSQQDLAEFKKLLEKVGKKRGTLYRHVGKSYSRTFIYTSRTLKKHT”, the “soluble on expression in E. coli” value is “not soluble”.

Consider “MLVENLAHFSADTRFEADLVIIGGGPAGLTVARELRGAPLRVLIVESGLLEEAPQANELSTLESIGEPNAPHQIQKRIAFHGANCRSWTQDLQPYGVRCRALGGSTHAWAGKSAAFDDIDFQERAWVPHSGWPMDRSSLDPFLDRAADILNLGPNRYDDTLWTLLGISPPEPQLGTQGLRSFFWQFSRSRVDPLDIMRFGADFLRLEADNIRVLLNATATRLDLTQEGDGFRGLEIATNDGQRHTVHAKAAVIAGGGIENARLLLASTTIHANGVGNQYDLVGRFLMDHAGARIARFGGSNANQIMRRFGFYGLRNSGRTSMYMHGLAITPEMQEREHLLNSAIYFMPEHAADDPWDAVKRLLTGKSKRQVKDAMRAIAGAGLLGKGAAMKLLSSDRLPVAVKDFIVQTAIRYMPNVAADDFLSRGVPHKVTDVWIDAISEQQPDPDSRITLSEKTDRLGLPLARVNWKINADERRTIMRLGHIVESAFAQARLPKPILEPWVAEGAFNDAVIIDMAHSMGTTRMSASARSGVVDEQCQVHGVRDLYIAGSSIFPTSGHANPTLMIVAFAVRLADRIRQTLL”, for which the “soluble on expression in E. coli” value was “not soluble”.

As to “MLWMVIGMWDTSKDYRLMVAVKAVDLFRRTLESGGFRGQWKKKPALQAAGEIERILQGLTYCYMEPEDLASSPEVMEIKGKVEEIVEALGGEDWSRRFLEEAPREEREKVEENIARVRFFLNTLGNLDRRLMLGKISDPVIGVDIITGEVMSVGNHPVADKLHVCNVNAGGRSIKVVTNDLDVRENDHVAVALLPPQNFMGVTSEGMFLGVEGVLRDVDGEPGEMPRGIPLEALNETRNLVEEFLKS”, the “soluble on expression in E. coli” value is “soluble”.

With “MLWPFRWVWWKRVLTSQTRAPAKPNPLTVPPTCTWWSLRKLPNPTKLDDDLKNLLDPNEVRARMLKSFGTENFTQPQPQPQALKTTTPVFGTSSGNLGSVLSGGGYHAGLKHHQSTVTRSTGEWVDR”, the “soluble on expression in E. coli” value is recorded as “soluble”.

In the case of “MMAESTGVDRGIQSLIAARKSLKLSLEKSKAIGLALGKTGPRFDEIEQRLPLLEAAVRPIRADGEALKDVGGNINRAVGPAAAVLKVFDAVHGLEKSLLSDPKNDLSSYLSVLKRLEEALKFLGENCGLAIQWLEDIVEYLDDHHVADEKYLSNLKKSLRGLSEFHNDRGGGEEKERSQLRLDGGLRNAALDKLENEFRRLLKDNSVPLPMASPSSLGDQACIAPSQLPVTVIHKLQAILGRLRANNRLDKCISIYVEVRSLNVRASLQALDLDYLDISVSEFNDVQSIEGYIAQWGNHLEFAVKHLFEAEFKLCNDVFERLGLNVWMDCFSKIAAQAGMLAFLQFGKTVTDSKKDPIKLLKLLDIFTSLNKLRADFNRLFGGAACIEIQNFTRDLIKRIIDGAAEIFWELLVQVEIQKQTPPPSDGGVPRLVSFVTDYCNKLIGDKYKSTLTQVLLIHKSWRSERFQDNQLMVEVLRIIKAIEQNLDVWMKAYPDQTLAHFFGMNNHWHLYKNLKGTNIGDHLGDSWLKEHDQYKEYYATVFLRDSWGKLPSHLSREGLILFSGGHATARDLVKKRLKAFNDAFDEMYKKQASWVLPEKDLRDRVCQQIVQAIVPVYRSYMQNYGPLVEKDASSSKYVRYTVVALEKILSSLYMPKPMRYGSFKGTPPSEKFKNDVDLRRTTSAVV”, the “soluble on expression in E. coli” value is given as “soluble”.

For the sequence “MMASHSDGKNMAKRKKRTKRGRPRINGCIREPNGRISRTKMPLDPIDKLAIEMRAKRFCLTLQEAKNPLSGTYIGRLYLQGNINQDQYDAAQKYLEVRNDYLCAKTLPSAIYDKMPSSSDEAARKKWVEFATKQFLNMQEVIKETQHLYRQHNFYAALQYLVSEDQELPYLVPSLADSP”, the “soluble on expression in E. coli” value was “not soluble”.

Regarding “MMCISKLPAVLLILSVALNHLRATPVRSGSNPQMDKRKCNTATCATQRLANFLVRSSNNLGPVLPPTNVGSNTYGKRNAAGDPNRESLDFLLV”, the “soluble on expression in E. coli” value is recorded as “not soluble”.

Consider “MMDRVCRLSLAALLAGSGAAYADGSTLTVAYYGGNWGEAFDACVAQPFTEKTGIRVVAEIGNSTTTLAKLQQQSGDAVIDVAYMDGGISELAQEAGVLAPIDLAAIPNAASYLPQAVYKAGDEVFAVSAGYYSLGLIYNTSEVTETPDTWLSLWDESYAGAVALPSPSNSSGVPFVLFLARSVLGDTSESLDPTFAKLKELDTGLLFDSSGAASNAFQSSEVIIGAHFNVGAWDLTDGGLPIGFSVPKEGVWATDARMHVVKGTKNPEGAAQYLDMAASPEAAACLAERLYLGPPVTGVTLAPDVERKLPWGEGGSVEKLHLSDWTEVNARRAAIVERWNREIAN”, for which the “soluble on expression in E. coli” value is recorded as “not soluble”.

For the sequence “MMHNPAHPGEVLKVAFLEEMGLTIQKLADHLHMTRASLSRVINGHASMSTELAIKLELAGFSKAKFWLDMQTNYNLWKTMQQAQPPISPLVSDSPQTSL”, the “soluble on expression in E. coli” value is on record as “not soluble”.

“MMIMREILISECIELLRSHKFIVSKPLGRSCFDMVASKEDIRLILKILKNIDSLSRDQSKELKKISKILHGTPLIIGIRTRNAPMEHGVVYDRYNIKAVTFETFRDYLEGSPPMVYANRGGFFVKIDGKVLKEVREAMGISVGKLAEVAGVSRKAIYKYETQMANPSVDVALKIEEFLDVPLVKGIDLFEPVDDEDVENKLENLEDFKKEAINFLNELGFKSFVVEKAPFDAVAEKDMDNNLNILLTNIEEKDNEEVKRKALFVRELSRLLDGYSLLILEEKEKEYKNLPVVSIEELKKMDDALELIEHIKSMLRDIR”: the “soluble on expression in E. coli” value is recorded as “soluble”.
